Literature values as cited in paper PMC3037977.
pKd: −log10 of the molar value. Read-outs that look alike come from different tables or passages of the source.

Experiments:
[1] = biological target: importin β (Homo sapiens) (UniProt Q14974)
[2] = biological target: importin β (Homo sapiens) (UniProt Q14974); remark: listed apart in the source

Sequence of importin β (Homo sapiens) (Q14974 whole entry): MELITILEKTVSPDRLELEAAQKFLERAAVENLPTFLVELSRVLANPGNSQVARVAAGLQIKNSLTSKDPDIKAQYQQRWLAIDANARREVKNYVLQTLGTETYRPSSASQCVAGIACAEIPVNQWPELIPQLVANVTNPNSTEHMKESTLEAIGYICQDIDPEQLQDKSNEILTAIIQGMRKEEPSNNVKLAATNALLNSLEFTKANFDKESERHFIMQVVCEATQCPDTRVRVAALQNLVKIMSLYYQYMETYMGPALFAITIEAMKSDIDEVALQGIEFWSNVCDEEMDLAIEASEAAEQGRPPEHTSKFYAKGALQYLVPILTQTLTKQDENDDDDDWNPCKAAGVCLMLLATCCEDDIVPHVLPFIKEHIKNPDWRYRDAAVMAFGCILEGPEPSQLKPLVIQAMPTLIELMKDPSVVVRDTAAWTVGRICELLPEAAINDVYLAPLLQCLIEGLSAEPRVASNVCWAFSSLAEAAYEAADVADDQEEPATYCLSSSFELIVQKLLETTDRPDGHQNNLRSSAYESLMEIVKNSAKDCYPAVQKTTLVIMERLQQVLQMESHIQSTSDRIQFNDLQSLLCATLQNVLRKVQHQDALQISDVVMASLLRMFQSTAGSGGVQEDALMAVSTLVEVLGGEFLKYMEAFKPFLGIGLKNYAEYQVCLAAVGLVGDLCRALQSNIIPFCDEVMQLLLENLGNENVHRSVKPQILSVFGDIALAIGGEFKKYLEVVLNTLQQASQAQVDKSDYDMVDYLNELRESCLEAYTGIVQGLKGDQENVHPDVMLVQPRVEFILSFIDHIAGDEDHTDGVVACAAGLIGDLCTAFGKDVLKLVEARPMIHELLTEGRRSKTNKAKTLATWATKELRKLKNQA
Sequence of snurportin IBB domain (O95149 8-76): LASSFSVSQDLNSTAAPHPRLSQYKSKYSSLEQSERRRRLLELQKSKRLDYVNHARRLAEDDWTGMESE

pKd [1] | pKd [2] | Substance
8.70 |  | importin α1 IBB domain (from UniProt P52292)
 | 8.70 | snurportin IBB domain (from UniProt O95149)
